The target of assay [1] is T1, recombinant mouse IL-12 (R&D Systems Cat#419-ML-010/CF) (mouse, UniProt P43431 23-215; P43432 23-335).
T1 construct: coated at 0.5 µg/ml; also called mIL-12
T1 sequence (looked up) 1: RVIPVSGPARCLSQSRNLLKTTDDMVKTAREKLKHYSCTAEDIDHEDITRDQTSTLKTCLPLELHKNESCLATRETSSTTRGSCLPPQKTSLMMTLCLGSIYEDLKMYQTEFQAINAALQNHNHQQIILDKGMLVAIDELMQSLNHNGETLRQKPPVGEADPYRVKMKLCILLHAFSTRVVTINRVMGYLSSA
T1 sequence (looked up) 2: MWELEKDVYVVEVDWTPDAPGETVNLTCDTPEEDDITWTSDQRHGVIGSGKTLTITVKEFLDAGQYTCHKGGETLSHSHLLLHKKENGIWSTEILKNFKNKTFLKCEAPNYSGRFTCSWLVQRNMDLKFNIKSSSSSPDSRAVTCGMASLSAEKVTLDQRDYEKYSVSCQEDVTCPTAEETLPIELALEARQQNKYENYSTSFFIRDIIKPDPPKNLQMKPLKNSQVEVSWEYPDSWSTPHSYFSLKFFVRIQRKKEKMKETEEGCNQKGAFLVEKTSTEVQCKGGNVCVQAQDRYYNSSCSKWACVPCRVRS
Put plainly: ELISA, coated cytokine.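 Also: antibodies incubated 3 h at room temperature on cytokine-coated plates, binding read out with alkaline phosphatase-conjugated anti-species IgG secondary antibodies.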 A general note: ELISA stands for enzyme-linked immunosorbent assay.

Assay [2] concerns the target T2, recombinant human IL-3 (R&D Systems Cat#203-IL/CF) (human, UniProt P08700 20-152).
T2 construct: also called huIL-3
T2 sequence (looked up): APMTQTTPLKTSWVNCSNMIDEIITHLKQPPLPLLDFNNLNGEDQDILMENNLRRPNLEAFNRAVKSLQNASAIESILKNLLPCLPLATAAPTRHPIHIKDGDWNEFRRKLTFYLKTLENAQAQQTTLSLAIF
The experiment in a line: ELISA, coated cytokine.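 Also: antibodies incubated 3 h at room temperature on cytokine-coated plates, binding read out with alkaline phosphatase-conjugated anti-species IgG secondary antibodies.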

Assay [3] has as its target T3, recombinant human IL-12 (R&D Systems Cat#219-IL-005/CF) (human, UniProt P29459 23-219; P29460 23-328).
T3 construct: also called huIL-12
T3 sequence (looked up) 1: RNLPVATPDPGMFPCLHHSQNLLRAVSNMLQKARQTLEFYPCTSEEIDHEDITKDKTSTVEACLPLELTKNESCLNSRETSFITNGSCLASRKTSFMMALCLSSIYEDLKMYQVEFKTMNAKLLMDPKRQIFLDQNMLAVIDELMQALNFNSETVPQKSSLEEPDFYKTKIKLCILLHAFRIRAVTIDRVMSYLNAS
T3 sequence (looked up) 2: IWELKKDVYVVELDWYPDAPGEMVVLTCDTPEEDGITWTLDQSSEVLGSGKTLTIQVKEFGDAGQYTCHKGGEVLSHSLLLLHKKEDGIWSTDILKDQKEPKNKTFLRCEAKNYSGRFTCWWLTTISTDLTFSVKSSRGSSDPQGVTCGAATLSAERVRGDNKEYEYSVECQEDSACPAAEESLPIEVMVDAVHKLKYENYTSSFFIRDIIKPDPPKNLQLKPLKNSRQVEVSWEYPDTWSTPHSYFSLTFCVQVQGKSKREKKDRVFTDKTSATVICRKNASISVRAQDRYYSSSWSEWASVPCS
Put plainly: ELISA, coated cytokine.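 Also: antibodies incubated 3 h at room temperature on cytokine-coated plates, binding read out with alkaline phosphatase-conjugated anti-species IgG secondary antibodies.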

In assay [4] the target is T4, recombinant mouse IL-17F (R&D Systems Cat#2057-IL/CF) (mouse, UniProt Q7TNI7 29-161).
T4 construct: also called mIL-17F
T4 sequence (looked up): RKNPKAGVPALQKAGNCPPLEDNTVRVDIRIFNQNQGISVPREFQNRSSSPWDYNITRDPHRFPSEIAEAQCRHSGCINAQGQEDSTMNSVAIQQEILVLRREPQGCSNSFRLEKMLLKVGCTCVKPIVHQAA
Put plainly: ELISA, coated cytokine.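 Also: antibodies incubated 3 h at room temperature on cytokine-coated plates, binding read out with alkaline phosphatase-conjugated anti-species IgG secondary antibodies.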

For assay [5], the target named is T5, recombinant human IL-1β (Novartis) (human, UniProt P01584 117-269).
T5 construct: also called huIL1β
Put plainly: ELISA, coated cytokine.

The target in assay [6] is T6, recombinant cynomolgus IL-17F (SEQ ID NO: 80) (cynomolgus monkey, UniProt Q96PD4 31-163 (human entry), limits assumed).
T6 construct: also called cynoIL-17F; cyno IL-17F
T6 chain: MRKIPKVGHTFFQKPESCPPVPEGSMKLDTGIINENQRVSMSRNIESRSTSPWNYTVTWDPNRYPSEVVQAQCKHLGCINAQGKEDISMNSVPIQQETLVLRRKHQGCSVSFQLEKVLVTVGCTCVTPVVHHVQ
Put plainly: ELISA, coated antigen.

The target in assay [7] is T7, recombinant rat IL-17A (SEQ ID NO: 85) (rat, UniProt Q61453 18-150).
T7 construct: also called rratIL-17A; rIL-17A
T7 sequence: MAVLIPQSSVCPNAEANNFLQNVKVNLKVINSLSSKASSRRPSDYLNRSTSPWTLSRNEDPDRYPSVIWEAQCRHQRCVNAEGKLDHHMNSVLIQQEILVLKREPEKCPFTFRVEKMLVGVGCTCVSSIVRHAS
The experiment in a line: SPR (Biacore), captured antibody, antigen as analyte. Background: SPR reads the build-up and loss of mass on a sensor chip optically.

In assay [8] the target is T8, recombinant mouse IL-17A (SEQ ID NO: 83) (mouse, UniProt Q62386 26-158).
T8 construct: also called mIL-17A; rmIL-17A
T8 sequence: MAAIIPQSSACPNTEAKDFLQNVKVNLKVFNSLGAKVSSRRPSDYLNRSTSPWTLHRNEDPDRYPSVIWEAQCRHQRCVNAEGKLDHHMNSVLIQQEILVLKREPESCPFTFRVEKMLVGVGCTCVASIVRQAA
Described as above.

The target of assay [9] is T9, recombinant human IL-17A (SEQ ID NO: 78) (human, UniProt Q16552 24-155, limits assumed).
T9 construct: homodimer; also called huIL-17A; hulL-17A
T9 sequence: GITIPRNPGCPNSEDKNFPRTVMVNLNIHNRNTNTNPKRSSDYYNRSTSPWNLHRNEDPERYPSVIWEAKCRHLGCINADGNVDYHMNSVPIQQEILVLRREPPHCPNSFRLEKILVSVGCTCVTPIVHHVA
The assay is described as above.

Assay [10] concerns the target T10, recombinant human IL-23 (R&D Systems Cat#1290-IL-010/CF) (human, UniProt Q9NPF7 20-189; P29460 23-328).
T10 construct: also called huIL-23
T10 sequence (looked up) 1: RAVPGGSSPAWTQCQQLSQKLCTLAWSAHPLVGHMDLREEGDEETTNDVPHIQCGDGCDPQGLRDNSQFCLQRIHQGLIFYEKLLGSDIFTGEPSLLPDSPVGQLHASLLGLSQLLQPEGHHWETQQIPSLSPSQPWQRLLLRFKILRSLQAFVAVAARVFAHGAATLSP
T10 sequence (looked up) 2: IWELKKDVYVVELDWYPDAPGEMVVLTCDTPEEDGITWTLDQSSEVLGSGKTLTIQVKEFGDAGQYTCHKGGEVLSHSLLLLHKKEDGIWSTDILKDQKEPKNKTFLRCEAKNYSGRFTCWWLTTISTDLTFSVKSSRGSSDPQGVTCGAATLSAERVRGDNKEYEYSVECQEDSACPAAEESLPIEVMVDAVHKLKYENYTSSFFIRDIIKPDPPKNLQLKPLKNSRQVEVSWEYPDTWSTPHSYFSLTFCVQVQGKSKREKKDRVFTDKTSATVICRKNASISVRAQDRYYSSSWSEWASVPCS
Put plainly: ELISA, coated cytokine.

B1: XAB4 (antibody, human IgG1, kappa, V domains shown)
VH: EVQLVESGGDLVQPGGSLRLSCAASGFTFSSYWMSWVRQAPGKGLEWVANIKQDGSEKYYVDSVKGRFTISRDNAKNSLYLQMNSLRAEDTAVYYCARDRGSLYYWGQGTLVTVSS
VL: AIQLTQSPSSLSASVGDRVTITCRPSQGINWELAWYQQKPGKAPKLLIYDASSLEQGVPSRFSGSGSGTDFTLTISSLQPEDFATYYCQQFNSYPLTFGGGTKVEIKR
notes: also called MB435 N56Q
As a reminder, the Kd is the constant that tells how readily two partners part at equilibrium. For B1, the binding result in assay [1] is recorded as “no binding (tested: 10 µg/ml)”; in assay [2], “no binding (tested: 10 µg/ml)”; in assay [3], “no binding (tested: 10 µg/ml)”; in assay [4] it was “no binding (tested: 10 µg/ml)”; in assay [5] it was “no binding (tested: 10 µg/ml)”; in assay [6], “no binding (tested: 1 µg/ml)”. Also, the figures for the Kd in assay [7], in [8] and in assay [9] were 0.084 nM, 0.16 nM and 0.0057 nM, respectively.

B2: XAB1 (antibody, human IgG1, kappa, V domains shown)
VH: EVQLVESGGDLVQPGGSLRLSCAASGFTFSSYWMSWVRQAPGKGLEWVANIKQDGSEKYYVDSVKGRFTISRDNAKNSLYLQMNSLRAEDTAVYYCARDRGSLYYWGQGTLVTVSS
VL: AIQLTQSPSSLSASVGDRVTITCRPSQGIISALAWYQQKPGKAPKLLIYDASSLENGVPSRFSGSGSGTDFTLTISSLQPEDFATYYCQQFNSYPLTFGGGTKVEIKR
notes: human IgG1/kappa monoclonal antibody; also called parental XAB1; XAB1 IgG
As for B2, in assay [10], the binding result is “no binding (tested: 10 µg/ml)”.
